Patent publication US20240391954A1, “MC4R AGONIST PEPTIDES” (The Regents of the University of Michigan, priority 2021, published 2024)
Starred links: 1 amine or outer side, 2 acyl side, 3 side chain; linkers in the order of their positions; H or OH if unused. Positions of bridges follow the written chain, without caps; N, C: chain ends. Non-standard residues stand in square brackets, D forms with d. dPhe(4-NHAc) = 4-acetamido-D-phenylalanine, CC(=O)Nc1ccc(C[C@@H](N[*:1])C(=O)[*:2])cc1; dPhe(4-tBu) = CC(C)(C)c1ccc(C[C@@H](N)C(=O)O)cc1; dPhe(4-Br) = N[C@H](Cc1ccc(Br)cc1)C(=O)O; dPhe(4-I) = N[C@H](Cc1ccc(I)cc1)C(=O)O; d(αMeF) = C[C@@](N)(Cc1ccccc1)C(=O)O; NMeR = CN[C@@H](CCCNC(=N)N)C(=O)O; Nle = CCCC[C@H](N)C(=O)O; R2 = not defined here

B1: CTX-1248 (peptide)
peptide: Ac-RC[dA][NMeR][dPhe(4-Br)]R[dW]C-NH2
modifications: disulfide 2-8
SMILES: CC(=O)N[C@@H](CCCNC(=N)N)C(=O)N[C@H]1CSSC[C@@H](C(N)=O)NC(=O)[C@@H](Cc2c[nH]c3ccccc23)NC(=O)[C@H](CCCNC(=N)N)NC(=O)[C@@H](Cc2ccc(Br)cc2)NC(=O)[C@H](CCCNC(=N)N)N(C)C(=O)[C@@H](C)NC1=O
B2: CTX-1226 (peptide)
peptide: R2-RC[dA]R[dPhe(4-Br)]R[dW]C-NH2
modifications: disulfide 2-8; reading uncertain; also: printed as N-term. Mod. R2; Arg-cyclo(Cys-D-Ala-Arg-D-Phe(4-Br)-Arg-D-Trp-Cys)-NH2
B3: CTX-1233 (peptide)
peptide: Ac-R[Nle]CH[dPhe(4-I)]R[dW]C-NH2
modifications: disulfide 3-8
SMILES: CCCC[C@H](NC(=O)[C@H](CCCNC(=N)N)NC(C)=O)C(=O)N[C@H]1CSSC[C@@H](C(N)=O)NC(=O)[C@@H](Cc2c[nH]c3ccccc23)NC(=O)[C@H](CCCNC(=N)N)NC(=O)[C@@H](Cc2ccc(I)cc2)NC(=O)[C@H](Cc2c[nH]cn2)NC1=O
B4: CTX-1237 (peptide)
peptide: Ac-RC[dA]R[dY]R[dW]C-NH2
modifications: disulfide 2-8
SMILES: CC(=O)N[C@@H](CCCNC(=N)N)C(=O)N[C@H]1CSSC[C@@H](C(N)=O)NC(=O)[C@@H](Cc2c[nH]c3ccccc23)NC(=O)[C@H](CCCNC(=N)N)NC(=O)[C@@H](Cc2ccc(O)cc2)NC(=O)[C@H](CCCNC(=N)N)NC(=O)[C@@H](C)NC1=O
B5: CTX-1220 (peptide)
peptide: Ac-RC[dA]R[dPhe(4-Br)]R[dW]CRF-NH2
modifications: disulfide 2-8
SMILES: CC(=O)N[C@@H](CCCNC(=N)N)C(=O)N[C@H]1CSSC[C@@H](C(=O)N[C@@H](CCCNC(=N)N)C(=O)N[C@@H](Cc2ccccc2)C(N)=O)NC(=O)[C@@H](Cc2c[nH]c3ccccc23)NC(=O)[C@H](CCCNC(=N)N)NC(=O)[C@@H](Cc2ccc(Br)cc2)NC(=O)[C@H](CCCNC(=N)N)NC(=O)[C@@H](C)NC1=O
B6: CTX-1222 (peptide)
peptide: Ac-RC[dA]R[dPhe(4-Br)]R[dW]CR[dF]-NH2
modifications: disulfide 2-8
SMILES: CC(=O)N[C@@H](CCCNC(=N)N)C(=O)N[C@H]1CSSC[C@@H](C(=O)N[C@@H](CCCNC(=N)N)C(=O)N[C@H](Cc2ccccc2)C(N)=O)NC(=O)[C@@H](Cc2c[nH]c3ccccc23)NC(=O)[C@H](CCCNC(=N)N)NC(=O)[C@@H](Cc2ccc(Br)cc2)NC(=O)[C@H](CCCNC(=N)N)NC(=O)[C@@H](C)NC1=O
B7: CTX-1242 (peptide)
peptide: Ac-RC[dA]R[dPhe(4-tBu)]R[dW]C-NH2
modifications: disulfide 2-8
SMILES: CC(=O)N[C@@H](CCCNC(=N)N)C(=O)N[C@H]1CSSC[C@@H](C(N)=O)NC(=O)[C@@H](Cc2c[nH]c3ccccc23)NC(=O)[C@H](CCCNC(=N)N)NC(=O)[C@@H](Cc2ccc(C(C)(C)C)cc2)NC(=O)[C@H](CCCNC(=N)N)NC(=O)[C@@H](C)NC1=O
B8: CTX-1240 (peptide)
peptide: Ac-RC[dA]R[d(αMeF)]R[dW]C-NH2
modifications: disulfide 2-8
SMILES: CC(=O)N[C@@H](CCCNC(=N)N)C(=O)N[C@H]1CSSC[C@@H](C(N)=O)NC(=O)[C@@H](Cc2c[nH]c3ccccc23)NC(=O)[C@H](CCCNC(=N)N)NC(=O)[C@@](C)(Cc2ccccc2)NC(=O)[C@H](CCCNC(=N)N)NC(=O)[C@@H](C)NC1=O
B9: CTX-1231 (peptide)
peptide: Ac-R[Nle]CH[dPhe(4-Br)]R[dW]C-NH2
modifications: disulfide 3-8
SMILES: CCCC[C@H](NC(=O)[C@H](CCCNC(=N)N)NC(C)=O)C(=O)N[C@H]1CSSC[C@@H](C(N)=O)NC(=O)[C@@H](Cc2c[nH]c3ccccc23)NC(=O)[C@H](CCCNC(=N)N)NC(=O)[C@@H](Cc2ccc(Br)cc2)NC(=O)[C@H](Cc2c[nH]cn2)NC1=O
B10: CTX-1249 (peptide)
peptide: Ac-RC[dA]P[dPhe(4-Br)]R[dW]C-NH2
modifications: disulfide 2-8
SMILES: CC(=O)N[C@@H](CCCNC(=N)N)C(=O)N[C@H]1CSSC[C@@H](C(N)=O)NC(=O)[C@@H](Cc2c[nH]c3ccccc23)NC(=O)[C@H](CCCNC(=N)N)NC(=O)[C@@H](Cc2ccc(Br)cc2)NC(=O)[C@@H]2CCCN2C(=O)[C@@H](C)NC1=O

Molecular target: human MC3R (human, UniProt P41968 1-323)
Sequence (P41968 whole entry): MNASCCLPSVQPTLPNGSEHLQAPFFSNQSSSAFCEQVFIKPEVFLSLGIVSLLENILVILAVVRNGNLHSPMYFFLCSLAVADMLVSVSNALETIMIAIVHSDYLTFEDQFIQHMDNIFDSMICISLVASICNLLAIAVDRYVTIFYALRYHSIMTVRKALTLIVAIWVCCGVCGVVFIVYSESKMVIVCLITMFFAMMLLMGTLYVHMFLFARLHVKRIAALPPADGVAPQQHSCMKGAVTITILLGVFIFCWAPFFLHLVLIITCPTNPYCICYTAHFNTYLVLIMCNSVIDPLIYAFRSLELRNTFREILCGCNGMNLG
Experiment: cell-based or functional assay

% max activation [%] | cAMP EC50 [nM] | Binder
18 | 2.8 | B1
29 | 12 | B2
22 | 4.1 | B3
19 | 79 | B4
30 | 93 | Ac-RC[dA]RF[NMeR][dW]C-NH2 (disulfide 2-8; not fully specified (residue 5)) [CTX-1251]
6.3 | 73 | Ac-RC[dA]R[dPhe(4-NHAc)]R[dW]C-NH2 (disulfide 2-8) [CTX-1245]
21 | 7.2 | B5
38 | 9.8 | B6
2.8 | 2.2 | B7
10 | 2090 | Ac-RC[dA][dR][dPhe(4-Br)]R[dW]C-NH2 (disulfide 2-8) [CTX-1250]
27 | 31 | B8
59 | 7 | B9
1.9 | 6.1 | B10

Molecular target: T1, human MC4R receptor (human, UniProt P32245 1-332)
T1 sequence (P32245 whole entry): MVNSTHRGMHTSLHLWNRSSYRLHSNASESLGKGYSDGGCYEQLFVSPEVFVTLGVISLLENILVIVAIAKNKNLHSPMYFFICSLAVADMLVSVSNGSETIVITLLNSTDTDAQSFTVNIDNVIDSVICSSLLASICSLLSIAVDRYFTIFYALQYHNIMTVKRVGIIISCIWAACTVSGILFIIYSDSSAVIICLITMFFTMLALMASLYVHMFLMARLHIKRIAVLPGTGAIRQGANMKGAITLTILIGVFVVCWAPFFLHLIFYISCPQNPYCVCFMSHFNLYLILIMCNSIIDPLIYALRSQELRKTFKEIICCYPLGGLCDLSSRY
Experiment: cell-based or functional assay

% max activation [%] | cAMP EC50 [nM] | Binder
47 | 2 | B1
71 | 3.8 | B2
16 | 2.2 | B3
61 | 998 | B4
31 | 25 | Ac-RC[dA]RF[NMeR][dW]C-NH2 (disulfide 2-8; not fully specified (residue 5)) [CTX-1251]
34 | 4450 | Ac-RC[dA]R[dPhe(4-NHAc)]R[dW]C-NH2 (disulfide 2-8) [CTX-1245]
76 | 1.87 | B5
79 | 30 | B6
5.8 | 26 | B7
8.7 | 185 | Ac-RC[dA][dR][dPhe(4-Br)]R[dW]C-NH2 (disulfide 2-8) [CTX-1250]
81 | 76 | B8
64 | 2.3 | B9
22 | 14 | B10

Molecular target: T1, human MC4R receptor
Experiment: cell-based or functional assay
Remark: another data set of the same source

MC4R selectivity vs MC1R | MC4R selectivity vs MC3R | Binder
1.31 | 1.36 | B1
1.33 | 3.21 | B2
0.26 | 1.88 | B3
0.24 | 0.08 | B4
0.11 | 3.73 | Ac-RC[dA]RF[NMeR][dW]C-NH2 (disulfide 2-8; not fully specified (residue 5)) [CTX-1251]
0.08 | 0.02 | Ac-RC[dA]R[dPhe(4-NHAc)]R[dW]C-NH2 (disulfide 2-8) [CTX-1245]
1.53 | 3.82 | B5
0.1 | 0.33 | B6
0.64 | 0.08 | B7
1.06 | 11 | Ac-RC[dA][dR][dPhe(4-Br)]R[dW]C-NH2 (disulfide 2-8) [CTX-1250]
0.46 | 0.41 | B8
0.19 | 3.04 | B9
5.08 | 0.45 | B10
